Test results published in patent publication US20230212319A1, “NOVEL ANTIGEN BINDING DOMAINS AND SYNTHETIC ANTIGEN RECEPTORS INCORPORATING THE SAME” (University of Southern California, priority 2020, published 2023).

B1: 22148 (protein)
chain: MALPVTALLLPLALLLHAARPACEVQLLESGGGLIQPGGSLRLSCAASGFTFSSHAMTWVRQAPGKGLEWVSAISGSGDYTHYADSVKGRFTISRDNSKNTVYLQMNSLRAEDSAVYYCAKDEDGGSLLGHRGQGTLVTVSSGTGGGGSGGGGSGGGGSEFDVVMTQSPSSLSASVGDRVTITCMASEDIYIRLAWYQQKPGNAPKLLIYAATSLETGVPSRFSGSGSGTDFTLTISSLQPEDFATYYCQQYWSSPWTFGGGTKVEIKLEGQPKANPTVTLFPPSSEELQANKATLVCLISDFYPGAVTVAWKADGSPVKAGVETTKPSKQSNNKYAASSYLSLTPEQWKSHRSYSCQVTHEGSTVEKTVAPTECSPIKTDVITMDPKDNCSKDANDTLLLQLTNTSAYYMYLLLLLKSVVYFAIITCCLLRRTAFCCNGEKSRAKRSGSGATNFSLLKQAGDVEENPGPTSATMDWIWRILFLVGAATGAHSGPQVQLQESGGGLAQAGGSLRLSCAASGRTFSMGWFRQAPGKEREFVAAITYSGGSPYYASSVRGRFTISRDNAKNTVYLQMNSLKPEDTAVYYCAANPTYGSDWNAENWGQGTQVTVSSGSGGGGSGGGGSGGGGSFEQVQLQESGPGLVKPSQTLSLTCTVSGYSITSDYTWNWIRQPPGNGLEWIGYITYSGSTSYNPSLKSRVLISVDTSKNQVSLKLSSVTAADTAVYYCARLGRRYTMDYWGQGTTVTVSSTRASTKGPSVFPLAPSSKSTSGGTAALGCLVKDYFPEPVTVSWNSGALTSGVHTFPAVLQSSGLYSLSSVVTVPSSSLGTQTYICNVNHKPSNTKVDKRVEPKSCEVKTDSTDHVKPKETENTKQPSKSCHKPKAIVHTEKVNMMSLTVLGLRMLFAKTVAVNFLLTAKLFFLRAKRSGSGVKQTLNFDLLKLAGDVESNPGPSRGHMTEYKPTVRLATRDDVPRAVRTLAAAFADYPATRHTVDPDRHIERVTELQELFLTRVGLDIGKVWVADDGAAVAVWTTPESVEAGAVFAEIGPRMAELSGSRLAAQQQMEGLLAPHRPKEPAWFLATVGVSPDHQGKGLGSAVVLPGVEAAERAGVPAFLETSAPRNLPFYERLGFTVTADVEVPEGPRTWCMTRKPGA
B2: SEQ ID NO: 21975: bispecific SIR: MPL-175 scFv linked to hCD19-Bu12 scFv attached to hTCRα-CSDVP via MYC tag; hTCRβ-KACIAH carries a V5 tag (protein)
chain: MALPVTALLLPLALLLHAARPLEGKPIPNPLLGLDSTGSGEDLKNVFPPEVAVFEPSKAEIAHTQKATLVCLATGFYPDHVELSWWVNGKEVHSGVCTDPQPLKEQPALNDSRYCLSSRLRVSATFWQNPRNHFRCQVQFYGLSENDEWTQDRAKPVTQIVSAEAWGRADCGITSASYHQGVLSATILYEILLGKATLYAVLVSALVLMAMVKRKDSRGRAKRSGSGATNFSLLKQAGDVEENPGPTSMALPVTALLLPLALLLHAARPDQIVLTQSPAIMSASPGEKVTISCSASSSVSYMYWYQQKPGSSPKPWIYRTSNLASGVPARFSGSGSGTSYSLTISNMEAEDAAAYYCQQYHSYPTTFGGGTKLEVKGGGGSGGGGSGGGGSEVQLVESGGGLVQPKGSLKLSCAASGFSFNTYAMNWVRQAPGKGLEWIAHIRSKSNNFATYYADSVKDRFSISRDASENILFLQMNNLKTEDTAMYYCVRQGGDFPMDYWGQGTSVTVSSTREAAAKEIVLTQSPATLSLSPGERATLSCSASSSVSYMHWYQQKPGQAPRLLIYDTSKLASGIPARFSGSGSGTDFTLTISSLEPEDVAVYYCFQGSVYPFTFGQGTKLEIKRGGGGSGGGGSGGGGSQVQLQESGPGLVKPSQTLSLTCTVSGGSISTSGMGVGWIRQHPGKGLEWIGHIWWDDDKRYNPALKSRVTISVDTSKNQFSLKLSSVTAADTAVYYCARMELWSYYFDYWGQGTLVTVSSTREQKLISEEDGSGIQNPDPAVYQLRDSKSSDKSVCLFTDFDSQTNVSQSKDSDVYITDKCVLDMRSMDFKSNSAVAWSNKSDFACANAFNNSIIPEDTFFPSSDVPCDVKLVEKSFETDTNLNFQNLSVIGFRILLLKVAGFNLLMTLRLWSSRAKRSGSGVKQTLNFDLLKLAGDVESNPGPSRGHMTEYKPTVRLATRDDVPRAVRTLAAAFADYPATRHTVDPDRHIERVTELQELFLTRVGLDIGKVWVADDGAAVAVWTTPESVEAGAVFAEIGPRMAELSGSRLAAQQQMEGLLAPHRPKEPAWFLATVGVSPDHQGKGLGSAVVLPGVEAAERAGVPAFLETSAPRNLPFYERLGFTVTADVEVPEGPRTWCMTRKPGA
B3: 22149 (protein)
chain: MALPVTALLLPLALLLHAARPACEVQLLESGGGLIQPGGSLRLSCAASGFTFSSHAMTWVRQAPGKGLEWVSAISGSGDYTHYADSVKGRFTISRDNSKNTVYLQMNSLRAEDSAVYYCAKDEDGGSLLGHRGQGTLVTVSSGTGGGGSGGGGSGGGGSEFDVVMTQSPSSLSASVGDRVTITCMASEDIYIRLAWYQQKPGNAPKLLIYAATSLETGVPSRFSGSGSGTDFTLTISSLQPEDFATYYCQQYWSSPWTFGGGTKVEIKLEGQPKANPTVTLFPPSSEELQANKATLVCLISDFYPGAVTVAWKADGSPVKAGVETTKPSKQSNNKYAASSYLSLTPEQWKSHRSYSCQVTHEGSTVEKTVAPTECSGRADCGFTSESYQQGVLSATILYEILLGKATLYAVLVSALVLMAMVKRKDSRGRAKRSGSGATNFSLLKQAGDVEENPGPTSATMDWIWRILFLVGAATGAHSGPQVQLQESGGGLAQAGGSLRLSCAASGRTFSMGWFRQAPGKEREFVAAITYSGGSPYYASSVRGRFTISRDNAKNTVYLQMNSLKPEDTAVYYCAANPTYGSDWNAENWGQGTQVTVSSGSGGGGSGGGGSGGGGSFEQVQLQESGPGLVKPSQTLSLTCTVSGYSITSDYTWNWIRQPPGNGLEWIGYITYSGSTSYNPSLKSRVLISVDTSKNQVSLKLSSVTAADTAVYYCARLGRRYTMDYWGQGTTVTVSSTRASTKGPSVFPLAPSSKSTSGGTAALGCLVKDYFPEPVTVSWNSGALTSGVHTFPAVLQSSGLYSLSSVVTVPSSSLGTQTYICNVNHKPSNTKVDKRVEPKSCIPEDTFFPSPESSCDVKLVEKSFETDTNLNFQNLSVIGFRILLLKVAGFNLLMTLRLWSSRAKRSGSGVKQTLNFDLLKLAGDVESNPGPSRGHMTEYKPTVRLATRDDVPRAVRTLAAAFADYPATRHTVDPDRHIERVTELQELFLTRVGLDIGKVWVADDGAAVAVWTTPESVEAGAVFAEIGPRMAELSGSRLAAQQQMEGLLAPHRPKEPAWFLATVGVSPDHQGKGLGSAVVLPGVEAAERAGVPAFLETSAPRNLPFYERLGFTVTADVEVPEGPRTWCMTRKPGA

Tests used:
Type in all cases: cell-based
[1] = system: RAJI cells; assay: JNG assay, co-culture with RAJI cells; conditions: for NFAT-GFP ASSAY: Raji: JNG cells expressing construct, co-culture with Raji
Method in brief: (§1)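 Read-out is NFAT-driven GFP measured by flow cytometry after ~4–18 h co-culture of SAR-expressing JNG cells with target cells (E:T about 1:2). SARs were introduced by lentiviral spinfection and selected with puromycin or blasticidin when possible; scores (+/- to 5+ ≈ 5–50% GFP+) are relative to parental JNG cells.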

[2] = system: HEL 92.1.7 cells; assay: JNG assay, co-culture with HEL 92.1.7 cells; conditions: for NFAT-GFP ASSAY: HEL 92.1.7: co-culture with HEL 92.1.7
Experimental: Cellular supernatant is collected and assayed for the induction of cytokines (e.g., IL2).
JNG (Jurkat cells expressing EGFP under an NFAT promoter) were infected with lentiviral vectors encoding different single chain and multi-chain SARs by spinfection in the presence of 8 µg/ml of Polybrene® (Sigma, Catalog no. H9268). The Jurkat-NFAT-GFP cells are engineered in such a way that the IL-2 promoter, which carries NFAT binding sites, is cloned upstream of the GFP gene. These cells have been used to study signaling via TCR and CAR. The different SARs were stably expressed in Jurkat NFAT-GFP cells by lentiviral mediated gene transfer, followed by selection with puromycin or blasticidin. No drug selection was used in case the construct lacked an antibiotic resistance gene. The SAR-expressing Jurkat-NFAT-GFP cells were cocultured with the target cells at E:T ratio of approximately 1:2 for approximately 4 hours to 18 hours. When the interaction between SIRs and their target antigen results in activation of the NFAT pathway, GFP expression is induced. […] GFP expression was monitored by FACS analysis. The Jurkat-NFAT-GFP (parental) cells were used as control. The structure of different constructs can be determined based on their names. […] The sequence of the other constructs in the table can be similarly determined from their names and by referring to the different Tables of this disclosure that provide the names and SEQ ID NO of the different modules. Alternatively, the composition and modular architecture of the different SAR constructs can be determined from their sequences by bioinformatics tools, including using nucleic acid and amino acids homology searches. […] The signs +/-, +, 2+ etc. after the name of the cell lines indicate the relative degree of positivity on the Jurkat-NFAT-GFP assay as measured by the % GFP positive cells after culture of the SAR expressing Jurkat-NFAT-GFP cells with that cell line above the % GFP cells observed in parental Jurkat NFAT-GFP cells serving as controls. […]

[3] = system: Nalm6 cells; assay: JNG assay, co-culture with Nalm6 cells; conditions: co-culture with Nalm6 cells
Method in brief: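 GFP expression induced through the NFAT pathway was monitored by FACS once SAR-bearing Jurkat reporters had been cultured with target cells at an approximate 1:2 ratio for 4 to 18 hours; parental reporter cells served as the baseline.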

[4] = system: U266 cells; assay: JNG NFAT-GFP induction on co-culture with U266
[5] = system: L363 cells; assay: JNG assay, co-culture with L363 cells; conditions: co-culture with L363
Method in brief: as §1

Row | Molecule | NFAT-GFP ASSAY: Raji [1] | NFAT-GFP ASSAY: HEL 92.1.7 [2] | GFP induction / activity [3] | GFP induction / activity ([1]; co-culture with RAJI cells) | GFP induction ([2]; co-culture with MPL expressing HEL 92.1.7 cells) | NFAT-GFP ASSAY: U266 [4] | NFAT-GFP ASSAY: L363 [5]
1 | B1 | 3+ (refer to approximately 5%, 10%, 20%, 30%, 40% and 50% GFP positive cells) | + (refer to approximately 5%, 10%, 20%, 30%, 40% and 50% GFP positive cells) |  |  |  |  | 
2 | B2 |  |  | only weak activity | only weak activity | marginal GFP induction |  | 
3 | B3 | 3+ (refer to approximately 5%, 10%, 20%, 30%, 40% and 50% GFP positive cells) | +/- (refer to approximately 5%, 10%, 20%, 30%, 40% and 50% GFP positive cells) |  |  |  | 3+ (refer to approximately 5%, 10%, 20%, 30%, 40% and 50% GFP positive cells) | + (refer to approximately 5%, 10%, 20%, 30%, 40% and 50% GFP positive cells)
